Changes are numbered by the printed parent chain.

Test [1] has as its target T1, Recombinant human IL-1beta (rhIL-1b) (human, UniProt P01584 117-269). Description: cell-based or functional assay.
Test [2] deals with T1, Recombinant human IL-1beta (rhIL-1b). Description: cell-based or functional assay. The source holds these as a separate data set.
Test [3] has the same target. Description: Biacore, Low Resolution screen.
Another test concerns the target T2, IL-1β R11A mutant (human, UniProt P01584 117-269).
T2 construct: site-directed mutant
The test is described as follows: binding to site-directed IL-1β mutant; X = abrogation of binding.

Test [4] has as its target T1, Recombinant human IL-1beta (rhIL-1b). Description: Biacore, Medium Resolution; IL-1β in solution; medium-resolution Biacore. (In SPR one partner is held on a chip, and binding of the other changes the refractive index at the surface.)
The target is the same in test [5]. Description: Biacore low-res, mAb captured, 25C; IL-1β in solution (118 nM) over captured mAb; low-resolution Biacore, 25 C.
Test [6] has the same target. The test is described as follows: Biacore high-res, mAb amine-coupled, 23C.

B1: 6.26.1 (antibody, human IgG4, V domains shown)
VH: QLQLQESGPGLVKPSETLSLTCTVSGGSISRSSYYWGWIRQPPGKGLEWMGNIYYSGSTHYNPSLKSRVTISVDTSKNQFSLKLSSVTAADTAVFYCAKGREYISSSGYGMDVWGQGTTVTVS
VL: SYELTQPPSVSVSPGQTASITCSGDKLGNKYVCWYQQKPGQSPVLVIFQDSRRPSGIPERFSGSNSGNTATLTISGTQAMDEADYYCQAWDTSTVIFGGGTKLTVL
notes: lambda; also called 6.26.4
As a reminder, the Kd is the constant that tells how readily two partners part at equilibrium. One may read the koff as the rate constant with which the complex falls apart. Broadly, the kon is a measure of how fast the partners come together. As for B1, in test [1], the “% IL-6 production, supernatant 1:5 dilut.” value is 9%; the “% IL-6 production, supernatant 1:10 dilut.” value was 8%; the “% IL-6 production, supernatant 1:20 dilut.” value came to 22%. Moreover, the “EC50, inhibition of IL-1β-induced IL-6 production in MRC-5 cells” value (shortened to “EC50, inhibition”) in test [2] came out at 0.591 nM. Also, in test [3], the Kd came out at 0.478 nM. In the test with IL-1β R11A mutant, the binding result is reported as “no binding”. Moreover, in test [4], the Kd is 0.2 nM, the koff was found to be 0.00038 s⁻¹ and the on-rate (kon) amounted to 1.9e+06 M⁻¹ s⁻¹. Further, in test [5], the Kd was found to be 0.478 nM, the koff stood at 0.00044 s⁻¹ and the kon was determined as 920000 M⁻¹ s⁻¹.

B2: 9.31.1 (antibody, human IgG4, V domains shown)
VH: QVQLVESGGGLVKPGGSLRLSCAASGFTFSDYYMSWIRQAPGKGLEWVSYIRSSGSTIYYADSVKGRFTISRDNAKNSLYLQMNSLRAEDTAVYYCARTPYSGRYHWYFDLWGRGTLVTVS
VL: SYELTQPPSVSVSPGQTARITCSGDALPIKYAYWYQHKSGQAPVLVIYEDSKRPSGIPERFSGSSSGTMATLTISGAQVEDEADYYCYSTDSSGNHRVFGGGTKLTVL
notes: lambda; also called 9.31.3
B2: in test [1], the “% IL-6 production, supernatant 1:5 dilut.” value came to 6%; the “% IL-6 production, supernatant 1:10 dilut.” value amounted to 23%; the “% IL-6 production, supernatant 1:20 dilut.” value is 13%. Moreover, in test [2], the “EC50, inhibition” value was 14.3 nM. Moreover, in the test with IL-1β R11A mutant, the binding result is “no binding”. In test [5], the Kd came out at 5.76 nM, the koff came to 0.0038 s⁻¹ and the kon came to 660000 M⁻¹ s⁻¹.

B3: 8.50.1 (antibody, human IgG4, V domains shown)
VH: QVQLQESGPGLVKPSETLSLTCTVSGGSISSDYWSWIRQPAGKGLEWIGRFYNSGRTNYRPSLKSRITMSVDTSKNQFSLKLSSVTAADTAVYYCARDMYSGRGNWYFDLWGRGTLVTVS
VL: B2 VL with I29K, H37Q, G94D
notes: lambda
As for B3, the binding result with IL-1β R11A mutant is listed as “no binding”. In addition, in test [5], the Kd came to 9 nM, the koff turned out to be 0.027 s⁻¹ and the kon came out at 3e+06 M⁻¹ s⁻¹.

B4: 9.26.1 (antibody, human IgG4, V domains shown)
VH: QVQLVESGGGVVQPGRSLRLSCAASGFTFNNYGMHWVRQAPGKGLECVAVIWYDGGNKYYADSVKGRFAISRDNSKNTLYLQMNSLRAEDTAVYYCTAVTKLNYYYGMDVWGQGTTVTVS
VL: QSALTQPASVSGSPGQSITISCTGTSSDVGGYNYVSWYQQHPGKAPKLMIYEVSNRPSGVSNRFSGSKSGNTASLTISGLQAEDEADYYCSSYTSSSILVFGGGTKLTVL
notes: lambda; also called 9.26.3
In the case of B4, in test [1], the “% IL-6 production, supernatant 1:5 dilut.” value came to 12%; the “% IL-6 production, supernatant 1:10 dilut.” value was found to be 27%; the “% IL-6 production, supernatant 1:20 dilut.” value was determined as 27%. In addition, the “EC50, inhibition” value in test [2] was found to be 5.68 nM. In test [5], the Kd was determined as 0.854 nM, the koff came out at 0.00035 s⁻¹ and the kon was 410000 M⁻¹ s⁻¹.

B5: 9.11.1 (antibody, human IgG4, V domains shown)
VH: QVQLVESGGGVVQPGRSLRLSCAASGFTFSVYGMHWVRQAPGKGLEWVAVIWYDGNNKYYVDSVKGRFTISRDNSKNTLYLQLNSLRAEDTAVYYCARERSSSWYFDYWGQGTLVTVSS
VL: B4 VL with P14S, G31S, Y34L, N55K, S91C, T94A, S95G, S96N, I98N, L99W
notes: lambda; also called 9.11.3
For the molecule B5, in test [1], the “% IL-6 production, supernatant 1:5 dilut.” value was found to be 4%; the “% IL-6 production, supernatant 1:10 dilut.” value is 3%; the “% IL-6 production, supernatant 1:20 dilut.” value turned out to be 10%. Further, the “EC50, inhibition” value in test [2] was 2.67 nM. Moreover, the Kd in test [3] was 0.29 nM. Further, the binding result with IL-1β R11A mutant is recorded as “no binding”. Also, in test [4], the Kd was 0.14 nM, the koff worked out at 0.00023 s⁻¹ and the kon is 1.6e+06 M⁻¹ s⁻¹. In addition, in test [5], the Kd came to 0.29 nM, the koff was determined as 0.0002 s⁻¹ and the kon is 690000 M⁻¹ s⁻¹.

B6: 9.19.1 (antibody, human IgG4, V domains shown)
VH: B4 VH with G114R
VL: B4 VL with L48F
notes: lambda; also called mAb 9.19.1
For B6, in test [1], the “% IL-6 production, supernatant 1:5 dilut.” value worked out at 5%; the “% IL-6 production, supernatant 1:10 dilut.” value was determined as 10%; the “% IL-6 production, supernatant 1:20 dilut.” value was found to be 15%. In test [2], the “EC50, inhibition” value was 2.91 nM. In test [6], the Kd was 0.262 nM, the koff amounted to 0.00019 s⁻¹ and the kon came to 727000 M⁻¹ s⁻¹. In test [4], the Kd amounted to 0.063 nM, the koff worked out at 4e-05 s⁻¹ and the kon was found to be 640000 M⁻¹ s⁻¹. In addition, in test [5], the Kd came out at 0.268 nM, the koff is 0.00015 s⁻¹ and the kon worked out at 560000 M⁻¹ s⁻¹.

B7: 9.2.1 (antibody, human IgG4, V domains shown)
VH: B4 VH with K101T, N103Y
VL: B4 VL
notes: lambda
For the molecule B7, in test [1], the “% IL-6 production, supernatant 1:5 dilut.” value turned out to be 4%; the “% IL-6 production, supernatant 1:10 dilut.” value is 8%; the “% IL-6 production, supernatant 1:20 dilut.” value came out at 16%. For the same molecule, in test [2], the “EC50, inhibition” value is 5.47 nM. The Kd in test [3] came to 0.747 nM. Besides, the binding result with IL-1β R11A mutant is reported as “no binding”. In test [4], the Kd worked out at 0.29 nM, the koff is 0.00035 s⁻¹ and the kon amounted to 1.2e+06 M⁻¹ s⁻¹. Besides, in test [5], the Kd stood at 0.747 nM, the koff was determined as 0.00074 s⁻¹ and the kon was determined as 990000 M⁻¹ s⁻¹.

B8: 8.6.1 (antibody, human IgG4, V domains shown)
VH: QVQLQESGPGLVKPSETLSLTCTVSGGSVSSGGYYWSWVRQPPGKGLEWIGCIYFSESTNYNPSLKSRVTISVDTSKNQFSLKLSSVTAADTAVYYCARDPMHYYGMDVWGQGTTVTVSS
VL: SFELTQPPSVSVSPGQTASITCSGDKLGDKFACWYQQKPGQSPVLVIYQDTKRPSGIPERISGSNSGNTATLTISGTQAMDEADYYCQAWDSSTYVVFGGGTKLTVL
notes: lambda; also called 8.6.3
Turning to B8, in test [1], the “% IL-6 production, supernatant 1:5 dilut.” value is 6%; the “% IL-6 production, supernatant 1:10 dilut.” value is 8%; the “% IL-6 production, supernatant 1:20 dilut.” value came to 23%. For the same molecule, in test [2], the “EC50, inhibition” value was 1.59 nM. Moreover, the Kd in test [3] came out at 1.23 nM. Further, in test [4], the equilibrium dissociation constant (Kd) was 0.82 nM. In test [5], the Kd amounted to 1.23 nM.

The record behind these values is US20070065439A1 (Amgen, published 2007).
